Patent US20220267400

Experiments:
[1] = molecular target: Construct E (Hu IL2(C125S)- 2x(SG4) - MMPcs1 - 2x(G4S) - IL2Ralpha - hu IgG1 Fc - 6xHIS)
[2] = molecular target: T1, Construct A (mIL2- 2x(SG4) - MMPcs1 - 2x(G4S) - IL2Ralpha - 6His)
T1 chain: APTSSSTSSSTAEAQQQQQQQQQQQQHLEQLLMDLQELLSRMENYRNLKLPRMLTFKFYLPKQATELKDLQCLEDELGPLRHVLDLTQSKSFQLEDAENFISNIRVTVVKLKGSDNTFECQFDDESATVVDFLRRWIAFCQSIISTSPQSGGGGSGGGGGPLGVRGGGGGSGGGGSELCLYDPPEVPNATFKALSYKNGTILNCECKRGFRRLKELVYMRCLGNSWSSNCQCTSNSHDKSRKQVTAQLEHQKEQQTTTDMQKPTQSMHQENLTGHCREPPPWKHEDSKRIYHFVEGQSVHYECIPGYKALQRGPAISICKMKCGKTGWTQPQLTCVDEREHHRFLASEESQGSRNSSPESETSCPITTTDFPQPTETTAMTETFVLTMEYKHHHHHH

[3] = molecular target: T2, Construct B (m IL2-2x(SG4) - MMPcs1 - 2x (G4S) - IL2Ralpha - mIgG1 Fc)
T2 chain: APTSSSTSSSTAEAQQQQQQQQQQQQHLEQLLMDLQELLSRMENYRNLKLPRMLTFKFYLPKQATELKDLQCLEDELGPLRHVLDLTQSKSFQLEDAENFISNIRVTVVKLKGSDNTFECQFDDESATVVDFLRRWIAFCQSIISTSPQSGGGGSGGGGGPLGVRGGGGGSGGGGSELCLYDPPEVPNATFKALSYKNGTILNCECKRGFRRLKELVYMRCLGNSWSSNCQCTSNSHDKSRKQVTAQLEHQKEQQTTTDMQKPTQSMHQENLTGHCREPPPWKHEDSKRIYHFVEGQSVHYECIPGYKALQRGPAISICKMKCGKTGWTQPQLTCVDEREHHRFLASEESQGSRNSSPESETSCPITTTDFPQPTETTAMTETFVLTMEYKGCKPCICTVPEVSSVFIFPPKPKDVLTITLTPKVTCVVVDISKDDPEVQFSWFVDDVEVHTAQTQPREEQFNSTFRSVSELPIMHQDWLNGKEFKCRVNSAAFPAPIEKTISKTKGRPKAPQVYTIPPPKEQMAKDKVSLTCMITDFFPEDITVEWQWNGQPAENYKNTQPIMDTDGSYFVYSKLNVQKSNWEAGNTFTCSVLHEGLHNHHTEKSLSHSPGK

Chain of Construct E (Hu IL2(C125S)- 2x(SG4) - MMPcs1 - 2x(G4S) - IL2Ralpha - hu IgG1 Fc - 6xHIS) (chain, as listed by the source C125S): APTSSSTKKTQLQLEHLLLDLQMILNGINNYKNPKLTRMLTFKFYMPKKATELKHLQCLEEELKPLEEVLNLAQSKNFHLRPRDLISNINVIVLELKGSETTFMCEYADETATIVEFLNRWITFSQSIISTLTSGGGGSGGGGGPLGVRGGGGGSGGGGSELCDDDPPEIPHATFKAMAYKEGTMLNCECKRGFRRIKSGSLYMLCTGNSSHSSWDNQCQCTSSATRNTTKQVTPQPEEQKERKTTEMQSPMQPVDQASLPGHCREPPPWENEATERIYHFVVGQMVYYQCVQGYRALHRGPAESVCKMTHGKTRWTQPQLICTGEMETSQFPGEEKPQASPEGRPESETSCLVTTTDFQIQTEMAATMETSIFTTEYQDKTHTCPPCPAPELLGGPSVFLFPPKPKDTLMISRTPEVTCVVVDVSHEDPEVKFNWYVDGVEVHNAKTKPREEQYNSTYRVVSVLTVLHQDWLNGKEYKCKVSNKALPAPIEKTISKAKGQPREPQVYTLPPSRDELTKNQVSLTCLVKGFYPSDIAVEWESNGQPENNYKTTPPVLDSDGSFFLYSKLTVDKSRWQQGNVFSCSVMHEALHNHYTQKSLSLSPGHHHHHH

B1: Recombinant MMP9 (R&D Systems), activated with p-aminophenylmercuric acetate (protein)
chain: FQTFKGLKWDHHNITYWIQNYSEDLPRDMIDDAFARAFAVWGEVAPLTFTRVYGPEADIVIQFGVAEHGDGYPFDGKDGLLAHAFPPGAGVQGDAHFDDDELWSLGKGVVIPTYYGNSNGAPCHFPFTFEGRSYSACTTDGRNDGTPWCSTTADYDKDGKFGFCPSERLYTEHGNGEGKPCVFPFIFEGRSYSACTTKGRSDGYRWCATTANYDQDKLYGFCPTRVDATVVGGNSAGELCVFPFVFLGKQYSSCTSDGRRDGRLWCATTSNFDTDKKWGFCPDQGYSLFLVAAHEFGHALGLDHSSVPEALMYPLYSYLEGFPLNKDDIDGIQYLYGRGSKPDPRPPATTTTEPQPTAPPTMCPTIPPTAYPTVGPTVGPTGAPSPGPTSSPSPGPTGAPSPGPTAPPTAGSSEASTESLSPADNPCNVDVFDAIAEIQGALHFFKDGWYWKFLNHRGSPLQGPFLTARTWPALPATLDSAFEDPQTKRVFFFSGRQMWVYTGKTVLGPRSLDKLGLGPEVTHVSGLLPRRLGKALLFSKGRVWRFDLKSQKVDPQSVIRVDKEFSGVPWNSHDIFQYQDKAYFCHGKFFWRVSFQNEVNKVDHEVNQVDDVGYVTYDLLQCP
- cleavage of the fusion protein, SDS-PAGE and Western blot [1]: essentially complete cleavage of the fusion proteins by MMP9 protease was seen after overnight incubation
- cleavage of the fusion protein, Western blot [1]: Cleavage product was detectable at 1 hour, and the full-length cytokine prodrug gave essentially no band at the 22 hour +MMP time point
- cleavage of the fusion protein, SDS-PAGE and Western blot [2]: essentially complete cleavage of the fusion proteins by MMP9 protease was seen after overnight incubation
- cleavage of the fusion protein, Western blot [2]: Cleavage product was detectable at 1 hour, and the full-length cytokine prodrug was substantially undetectable at the overnight +MMP time point
- cleavage of the fusion protein, SDS-PAGE and Western blot [3]: essentially complete cleavage of the fusion proteins by MMP9 protease was seen after overnight incubation
- cleavage of the fusion protein, Western blot [3]: Cleavage product was detectable at 1 hour, and the full-length cytokine prodrug gave only a faint band at the 20 hour +MMP time point
